{"source": "patent US20060029546A1", "about": "“Materials and methods for identifying anti-schizophrenic agents” (deCODE Genetics, Inc., priority 2004, published 2006)", "key": {"ErbB4 [1]": {"tested_on": "ErbB4", "assay": "ErbB4 tyrosine phosphorylation and kinase activity in CHO-K1 cells expressing ErbB4", "format": "cell-based", "method": "The initial step of NRG1 signaling is activation of ErbB4 kinase activity and auto-phosphorylation on tyrosine residues. An increase in ErbB4 tyrosine phosphorylation and associated kinase activity was observed when CHO-K1 cells (ECACC Accession No. 85051005) expressing ErbB4 were exposed to NRG1 (recombinant human HRG-αEGF domain; R&D Systems, Minneapolis, Minn.) in serum free medium for 0-15 minutes. Following immunoprecipitation of ErbB4, kinase activity was measured using a peptide substrate. Maximum ErbB4 kinase activity was detected within 1 minute of NRG1 exposure but returned to the pre-stimulation level by 15 minutes."}, "ErbB4 [2]": {"tested_on": "ErbB4", "assay": "ErbB4 tyrosine phosphorylation in HEK293 cells (Western blot)", "format": "cell-based", "conditions": "HEK293 cells expressing ErbB4 and Fyn-V5, 7.2 nM NRG1 for 10 minutes", "method": "(§1) To determine whether NRG1-induced activation of ErbB4 leads to Fyn phosphorylation, NRG1 exposure of HEK293 cells stably expressing ErbB4 and Fyn-V5 were activated with 7.2 nM NRG1 (R&D Systems; Minneapolis, Minn.) for 10 minutes and lysed using RIPA buffer. […] There was no change in Fyn Tyr531 phosphorylation. […] Fyn is activated either by dephophorylation of Tyr531 with loss of the SH2 domain interaction, or through displacement of the SH2 domain by a second tyrosine phosphorylated binding partner allowing auto-phosphorylation on the Fyn activation loop residue Tyr420. Alternatively, Fyn can be phosphorylated on Tyr420 and activated directly by a second kinase. Thus, the NRG1-stimulated increase in Fyn Tyr420 phosphorylation may be through stimulation of Fyn auto-phosphorylation, through phosphorylation of Fyn by ErbB4, or through phosphorylation of Fyn by an ErbB4 activated tyrosine kinase other than Fyn.\nThus, NRG1-induced ErbB4 phosphorylation under conditions in which Fyn and related Src-family kinases were inhibited by PP2 (selective Src-family kinase inhibitor described above). […] This may result in the creation of additional SH2 domain docking sites, thus leading to further activation of Fyn as part of a positive feedback mechanism involving NRG1, ErbB4 and Src-family kinases."}, "[3]": {"tested_on": "NMDA receptor NR2B subunit", "assay": "NR2B tyrosine phosphorylation in SK-N-BE(2)-M17 cells grown with retinoic acid", "format": "cell-based", "conditions": "immunoprecipitation, anti-phosphotyrosine Western blot", "method": "To determine if D150838 modulates tyrosine phosphorylation of the NMDA receptor, SK-N-BE(2)-M17 cells were grown for 72 house in the presence of retinoic acid to induce expression of the NMDA receptor NR2B subunit. The cells were contacted with NRG1 or D150838, the NR2B subunit was immunoprecipitated, and the level of tyrosine phosphorylation was detected by Western blot analysis with an anti-phosphotyrosine antibody. […] Phosphorylation of tyrosine residue 1472 was detected after exposure to D150838."}, "[4]": {"tested_on": "MAPK pathway (serum response element luciferase reporter)", "assay": "SRE-luciferase reporter gene assay in CHO-K1 cells expressing ErbB4 or ErbB4 and Fyn", "format": "cell-based", "method": "CHO-K1 cells expressing only ErbB4 were constructed, and subsequently a subclone co-expressing Fyn was identified. The parental ErbB4 expressing cell line and the subclone co-expressing ErbB4 and Fyn continued to express similar levels of ErbB4 as shown by Western blot. The cells also contained a reporter gene sensitive to MAPK pathway activation, the luciferase gene under the control of a promoter containing a serum response element (SRE). The cells were activated for 4 hours with 0-57.6 nM and the luciferase assay was performed using the Dual-Luciferase Reported assay system (Promega, Madison, Wis.) according to the manufacturer's instructions. Induction of the luciferase reporter gene by NRG1 was amplified two-fold (p<0.05) in cells co-expressing ErbB4 and Fyn as compared to cells expressing only ErbB4. No significant differences in baseline luciferase activity or in NRG1 EC50 (˜1 nM) were found between the two cell lines."}, "NR2B": {"tested_on": "NR2B", "assay": "NR2B Tyr1472 phosphorylation in differentiated BE(2)-M17 neuroblastoma cells", "format": "cell-based, human", "conditions": "stimulation for 10 minutes", "method": "(§2) Studies were carried out to determine if NRG1 signaling, mediated by activation of Src-family kinases, results in changes in the phosphorylation state of regulatory tyrosine residues on NR2B. BE(2)-M 17 human neuroblastoma cells (ECACC No. 95011816) have a neuron-like appearance after differentiation for 72 hours in the presence of 10 μM retinoic acid (RA; Sigma, St. Louis, Mo.) (Hanada et al., Can. Res. 53: 4978-4986, 1993). […] As RA differentiation induces NR2B, but not NR2A, expression, it was expected that the functional NMDA receptor channels expressed in these cells comprised of NR1 and NR2B subunits. Stimulation of differentiated BE(2)-M17 cells with NRG1 for 10 minutes increased ErbB4 tyrosine phosphorylation (FIG. 2), increased Fyn/Src Tyr420 phosphorylation (indicative of increased Src-family kinase activity), and increased Pyk2 Tyr402 phosphorylation. Pyk2 Tyr402 is an auto-phosphorylation site involved in Src-family kinase recruitment (Dikic et al., Nature 383: 547-550, 1996). In addition, a coincident increase in NR2B Tyr1472 phosphorylation was also observed (FIG. 2). Thus, NRG1 signaling through ErbB4 modulates NR2B tyrosine phosphorylation in neuroblastoma cells."}, "Pyk2": {"tested_on": "Pyk2", "assay": "Pyk2 Tyr402 phosphorylation in differentiated BE(2)-M17 neuroblastoma cells", "format": "cell-based, human", "conditions": "stimulation for 10 minutes", "method": "as §2"}, "Fyn [5]": {"tested_on": "Fyn", "sequence (P06241 whole entry, species assumed)": "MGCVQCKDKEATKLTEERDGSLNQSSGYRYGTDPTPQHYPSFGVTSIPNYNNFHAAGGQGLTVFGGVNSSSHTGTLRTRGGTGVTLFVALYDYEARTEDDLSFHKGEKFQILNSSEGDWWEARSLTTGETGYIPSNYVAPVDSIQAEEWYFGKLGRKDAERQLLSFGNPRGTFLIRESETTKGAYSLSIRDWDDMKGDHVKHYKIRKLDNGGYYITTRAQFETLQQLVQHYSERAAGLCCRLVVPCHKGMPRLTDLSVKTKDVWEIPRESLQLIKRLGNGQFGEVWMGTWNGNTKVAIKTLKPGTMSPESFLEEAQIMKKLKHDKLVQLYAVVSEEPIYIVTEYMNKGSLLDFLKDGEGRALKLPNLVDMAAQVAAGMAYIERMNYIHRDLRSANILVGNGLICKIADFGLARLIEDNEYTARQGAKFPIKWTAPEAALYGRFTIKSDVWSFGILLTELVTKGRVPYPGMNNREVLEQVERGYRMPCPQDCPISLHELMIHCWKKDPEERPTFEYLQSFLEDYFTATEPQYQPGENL", "assay": "Fyn phosphorylation in HEK293 cells stably expressing ErbB4 and Fyn-V5 (Western blot)", "format": "cell-based", "method": "as §1\nThese alternatives were distinguished by applying PP2 (25 nM; Calbiochem, San Diego, Calif.) a relatively selective Src-family kinase inhibitor, to inhibit Fyn while ErbB4 signaling was stimulated with NRG1. […] Fyn was phosphorylated at a low level on Tyr420 under basal conditions. […] After NRG1 stimulation, an increase in Fyn Tyr420 phosphorylation was seen, even under conditions in which PP2 was used to inhibit p59 Fyn autophosphorylation. […] Thus, ErbB4 or an ErbB4 activated tyrosine kinase may phosphorylate Fyn on Tyr420 in response to NRG1 stimulation and activate the kinase directly."}, "Fyn [6]": {"tested_on": "Fyn", "assay": "Fyn kinase activity after NRG1 stimulation of cells", "format": "cell-based", "method": "To test if the observed increase in Fyn Tyr420 phosphorylation was associated with enhanced catalytic activity, Fyn kinase activity was measured after NRG1 stimulation. Fyn kinase activity was increased within 5 minutes of NRG1 stimulation, reached maximum activity after 7 minutes, and returned to pre-stimulation levels within 15 minutes."}, "ErbB4 [7]": {"target": "T1, ErbB4 (Homo sapiens, UniProt Q15303)", "T1 construct": "host or cells: BE(2)-M17 neuroblastoma, retinoic-acid differentiated", "T1 sequence (Q15303 26-1308)": "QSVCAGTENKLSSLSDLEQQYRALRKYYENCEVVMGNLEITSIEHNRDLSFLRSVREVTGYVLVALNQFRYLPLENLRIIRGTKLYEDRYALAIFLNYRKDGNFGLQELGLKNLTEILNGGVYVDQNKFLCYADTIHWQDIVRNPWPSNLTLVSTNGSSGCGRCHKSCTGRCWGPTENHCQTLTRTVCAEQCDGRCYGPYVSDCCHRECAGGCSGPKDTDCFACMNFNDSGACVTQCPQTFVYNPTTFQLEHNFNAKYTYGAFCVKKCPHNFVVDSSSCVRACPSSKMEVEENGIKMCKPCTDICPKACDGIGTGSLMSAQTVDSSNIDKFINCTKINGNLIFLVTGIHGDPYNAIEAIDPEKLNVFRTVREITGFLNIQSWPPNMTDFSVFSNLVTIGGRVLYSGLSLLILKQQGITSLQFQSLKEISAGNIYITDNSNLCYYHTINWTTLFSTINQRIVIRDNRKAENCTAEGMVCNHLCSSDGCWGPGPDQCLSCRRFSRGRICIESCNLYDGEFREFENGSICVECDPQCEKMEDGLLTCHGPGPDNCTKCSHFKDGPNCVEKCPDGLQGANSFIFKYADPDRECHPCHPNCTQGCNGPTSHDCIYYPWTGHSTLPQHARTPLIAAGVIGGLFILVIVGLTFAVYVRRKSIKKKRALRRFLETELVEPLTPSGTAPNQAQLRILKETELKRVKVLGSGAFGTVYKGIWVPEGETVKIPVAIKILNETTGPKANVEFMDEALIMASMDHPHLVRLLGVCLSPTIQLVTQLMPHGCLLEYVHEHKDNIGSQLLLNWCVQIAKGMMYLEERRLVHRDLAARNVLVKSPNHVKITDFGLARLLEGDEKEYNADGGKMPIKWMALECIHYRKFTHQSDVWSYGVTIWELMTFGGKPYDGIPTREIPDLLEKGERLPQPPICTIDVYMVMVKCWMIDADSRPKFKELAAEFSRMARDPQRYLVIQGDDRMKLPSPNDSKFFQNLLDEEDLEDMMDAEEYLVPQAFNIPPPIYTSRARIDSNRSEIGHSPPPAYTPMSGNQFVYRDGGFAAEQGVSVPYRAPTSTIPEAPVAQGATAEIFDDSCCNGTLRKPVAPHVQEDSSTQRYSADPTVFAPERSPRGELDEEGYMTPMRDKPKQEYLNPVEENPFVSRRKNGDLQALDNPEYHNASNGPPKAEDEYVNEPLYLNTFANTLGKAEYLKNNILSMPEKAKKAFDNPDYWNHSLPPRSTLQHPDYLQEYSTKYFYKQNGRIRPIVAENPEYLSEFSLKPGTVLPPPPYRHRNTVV", "assay": "ErbB4 tyrosine phosphorylation in differentiated BE(2)-M17 neuroblastoma cells", "format": "cell-based", "conditions": "stimulation for 10 minutes", "method": "as §2"}, "Fyn/Src": {"tested_on": "Fyn/Src", "assay": "Fyn/Src Tyr420 phosphorylation in differentiated BE(2)-M17 neuroblastoma cells", "format": "cell-based, human", "conditions": "stimulation for 10 minutes", "method": "as §2"}, "MAPK p44/42": {"tested_on": "MAPK p44/42", "assay": "MAPK p44/42 activation in HEK293 cells stably expressing ErbB4 and Fyn-V5", "format": "cell-based", "conditions": "7.2 nM NRG1 for 10 minutes"}}}
{"molecule": "NRG1: recombinant human HRG-αEGF domain; R&D Systems; polypeptide growth factor Neuregulin 1 (protein) SHLVKCAEKEKTFCVNGGECFMVKDLSNPSRYLCKCQPGFTGARCTENVPMKVQNQEKAEELYQK", "values": [{"measurement": "time of return of ErbB4 kinase activity to pre-stimulation level", "setting": "ErbB4 [1]; after NRG1 exposure", "result": "≤ 15", "unit": "min"}, {"measurement": "time to maximum ErbB4 kinase activity", "setting": "ErbB4 [1]; after NRG1 exposure", "result": "≤ 1", "unit": "min"}, {"measurement": "ErbB4 tyrosine phosphorylation and associated kinase activity", "setting": "ErbB4 [1]; serum free medium, 0-15 minutes", "result": "increase"}, {"measurement": "ErbB4 tyrosine phosphorylation", "setting": "ErbB4 [2]", "result": "tyrosine phosphorylation of ErbB4"}, {"measurement": "tyrosine phosphorylation of the NR2B subunit", "setting": "[3]", "result": "induced tyrosine phosphorylation"}, {"measurement": "EC50", "setting": "[4]; 4 hours, 0-57.6 nM, no significant difference between the two cell lines, read-out: EC50, luciferase reporter induction", "result": "~1", "unit": "nM"}, {"measurement": "amplification of luciferase reporter induction in cells co-expressing ErbB4 and Fyn compared to cells expressing only ErbB4", "setting": "[4]; p<0.05", "result": "two-fold"}, {"measurement": "NR2B Tyr1472 phosphorylation", "setting": "NR2B", "result": "increase"}, {"measurement": "Pyk2 Tyr402 phosphorylation", "setting": "Pyk2", "result": "increased"}, {"measurement": "Fyn Tyr420 phosphorylation", "setting": "Fyn [5]; 7.2 nM NRG1 for 10 minutes", "result": "phosphorylation of Fyn on Tyr420"}, {"measurement": "Fyn Tyr531 phosphorylation", "setting": "Fyn [5]; 7.2 nM NRG1 for 10 minutes", "result": "no change"}, {"measurement": "Fyn Tyr420 phosphorylation after NRG1 stimulation with PP2 present", "setting": "Fyn [5]; PP2 used to inhibit Fyn autophosphorylation", "result": "increase"}, {"measurement": "time of maximum Fyn kinase activity", "setting": "Fyn [6]; after NRG1 stimulation", "result": 7, "unit": "min"}, {"measurement": "time of return of Fyn kinase activity to pre-stimulation levels", "setting": "Fyn [6]; after NRG1 stimulation", "result": "≤ 15", "unit": "min"}, {"measurement": "time to increased Fyn kinase activity", "setting": "Fyn [6]; after NRG1 stimulation", "result": "≤ 5", "unit": "min"}, {"measurement": "Fyn kinase activity", "setting": "Fyn [6]; cells co-expressing Fyn and catalytically inactive ErbB4 D843A mutant", "result": "No increase"}, {"measurement": "ErbB4 tyrosine phosphorylation", "setting": "ErbB4 [7]", "result": "increased"}, {"measurement": "Fyn/Src Tyr420 phosphorylation", "setting": "Fyn/Src", "result": "increased"}, {"measurement": "MAPK p44/42 Thr202/Tyr204 phosphorylation", "setting": "MAPK p44/42", "result": "increase"}]}
